Test results taken from paper PMC4699771.

System: T1, YhaJ (Escherichia coli EHEC O157:H7? EDL933 (amplified from TUV93-0 genomic DNA)), ORF:62819c23
T1 sequence: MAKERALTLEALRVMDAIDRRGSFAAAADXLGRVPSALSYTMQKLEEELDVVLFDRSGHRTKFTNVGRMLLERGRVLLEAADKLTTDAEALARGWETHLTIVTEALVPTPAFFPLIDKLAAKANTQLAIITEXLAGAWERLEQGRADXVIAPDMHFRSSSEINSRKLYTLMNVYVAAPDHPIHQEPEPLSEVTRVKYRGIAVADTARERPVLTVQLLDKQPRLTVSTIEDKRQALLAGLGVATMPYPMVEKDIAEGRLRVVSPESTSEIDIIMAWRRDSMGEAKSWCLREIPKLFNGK
Assay: EMSA
Conditions: EMSA: Roche DIG Gel Shift Kit 2nd Gen (buffer, salt and pH not stated), 30 min at 30 C, YhaJ 0-1 uM, DIG probe diluted to 0.4 ng/ul, 6% DNA retardation gel

| Sequence | binding |
| --- | --- |
| CCTGCTGTAGAACTGCAATTTGCTCTATAAGCTGAATGTATGGACTTGTTGTATGTGAATTATTTTCCATATTCATAATAAATAATCTCCGCATGCTTTAATATTTTAAGCTATTAGCGACCTTATCAGGAAGGACCAACAATTAATCAAATGATATAAATTATGTGAGATAACGTTTATCTATCAAATTAGGACACATCTATTTCATCAAACAACCACCTTAAAATG (double strand) [LEE1 P2 promoter probe] | no binding |
| TCGCTCAATATTTTGTAGGGCTTATTATTTTTTTCCGAGCCGCATCAAGGCGATATGCGGTCTACGTTTTTGCAGGCGAGTTATTAGAATAAAGAAATGATACGCGCGAGGTCAGAGAAAATCTTCACAATCAAGACTTTGAAATAACGGAGATGGATAAGAATTTTCTACTAAATTAATCGCAAGAGAATATTCACTCTCTATTTGCGGCAGATCACAAAAAAAAGGTGCACATTTGTGCACCCAAGGATGAAAGCTGACAGCAATGTCAGCCGCAGACCACTTTAATGGCCAGTCCGC (double strand) [pyhaO promoter probe] | binds |
